{"source": "the RNAGym collection of RNA variant scans (doi:10.1021/acssynbio.7b00057)", "parents": {"B1": {"name": "Pistol ribozyme (parent)", "chain": "GGGUCGUUGUUCCAUAAUCGCGUGGAUAUGGCACGCAAGUUUCUACCGGGCACCGUAAAUGUCCGACUGGAGCCGUUCGGGCGGCUAUAAACAGACCUCAGGCCCGAAGCGUGGCGGCACCUGCCGCCGGUGGUAAAAAAGAUCGGAAGAGCACACGUCU"}}}
{"variants_of": "B1", "assay": "aptazyme ON/OFF ratio, guanine; higher = stronger switching; co-transcriptional cleavage with and without guanine"}
{"variant": "U7G U8A G9A U10A U11C C12U C13G", "aptazyme ON/OFF ratio": 1.1}
{"variant": "U7G U8A G9A U10C U11G C13G", "aptazyme ON/OFF ratio": 1.15}
{"variant": "U7G U8A G9A U10C U11G C13A", "aptazyme ON/OFF ratio": 1.14}
{"variant": "U7G U8A G9A U10C U11G C13U", "aptazyme ON/OFF ratio": 1.09}
{"variant": "U7G U8A G9A U11A", "aptazyme ON/OFF ratio": 1.45}
{"variant": "U7G U8A G9A U10G U11G C12G C13G", "aptazyme ON/OFF ratio": 1.16}
{"variant": "U7G U8A G9A U10G U11G C12G C13A", "aptazyme ON/OFF ratio": 1.27}
{"variant": "U7G U8A G9A U10G U11G C12G C13U", "aptazyme ON/OFF ratio": 1.26}
{"variant": "U7G U8A G9A U10C C13U", "aptazyme ON/OFF ratio": 1.13}
{"variant": "U7G U8A G9A U10C C13G", "aptazyme ON/OFF ratio": 1.07}
{"variant": "U7G U8A G9A U10C C13A", "aptazyme ON/OFF ratio": 1.09}
{"variant": "U7G U8A G9A U10G U11G C12U C13A", "aptazyme ON/OFF ratio": 1.4}
{"variant": "U7G U8A G9A U10G U11G C12U C13U", "aptazyme ON/OFF ratio": 1.17}
{"variant": "U7G U8A G9A U10G U11G C12U C13G", "aptazyme ON/OFF ratio": 1.18}
{"variant": "U7G U8A G9A U10A U11G C12G", "aptazyme ON/OFF ratio": 1.2}
{"variant": "U7G U8A G9A U10A U11G C12U", "aptazyme ON/OFF ratio": 1.65}
{"variant": "U7G U8A G9A U10A U11G C12A", "aptazyme ON/OFF ratio": 1.06}
{"variant": "U7G U8A G9A U10C U11A C12U C13G", "aptazyme ON/OFF ratio": 1.03}
{"variant": "U7G U8A G9A U10C U11A C12U C13A", "aptazyme ON/OFF ratio": 1.09}
{"variant": "U7G U8A G9A U10C U11A C12U C13U", "aptazyme ON/OFF ratio": 1.05}
{"variant": "U7G U8A G9A U10A U11G C13A", "aptazyme ON/OFF ratio": 1.14}
{"variant": "U7G U8A G9A U10A U11G C13U", "aptazyme ON/OFF ratio": 1.16}
{"variant": "U7G U8A G9A U10A U11G C13G", "aptazyme ON/OFF ratio": 1.07}
{"variant": "U7G U8A G9A U10C C12G C13U", "aptazyme ON/OFF ratio": 1.28}
{"variant": "U7G U8A G9A U10C C12G C13G", "aptazyme ON/OFF ratio": 1.11}
{"variant": "U7G U8A G9A U10C C12G C13A", "aptazyme ON/OFF ratio": 1.11}
{"variant": "U7G U8A G9A U10G U11G C12U", "aptazyme ON/OFF ratio": 1.48}
{"variant": "U7G U8A G9A U10G U11G C12A", "aptazyme ON/OFF ratio": 1.14}
{"variant": "U7G U8A G9A U10G U11G C12G", "aptazyme ON/OFF ratio": 1.24}
{"variant": "U7G U8A G9A U10G U11A C12A C13G", "aptazyme ON/OFF ratio": 1.16}
{"variant": "U7G U8A G9A U10G U11A C12A C13A", "aptazyme ON/OFF ratio": 1.04}
{"variant": "U7G U8A G9A U10G U11A C12A C13U", "aptazyme ON/OFF ratio": 1.07}
{"variant": "U7G U8A G9A U10C U11G C12G C13U", "aptazyme ON/OFF ratio": 1.08}
{"variant": "U7G U8A G9A U10C U11G C12G C13A", "aptazyme ON/OFF ratio": 1.2}
{"variant": "U7G U8A G9A U10C U11G C12G C13G", "aptazyme ON/OFF ratio": 1.19}
{"variant": "U7G U8A G9A U10G U11A C12U C13U", "aptazyme ON/OFF ratio": 1.09}
{"variant": "U7G U8A G9A U10G U11A C12U C13A", "aptazyme ON/OFF ratio": 1.18}
{"variant": "U7G U8A G9A U10G U11A C12U C13G", "aptazyme ON/OFF ratio": 1.06}
{"variant": "U7G U8A G9A U10C U11C C12A C13U", "aptazyme ON/OFF ratio": 1.08}
{"variant": "U7G U8A G9A U10C U11C C12A C13A", "aptazyme ON/OFF ratio": 1.07}
{"variant": "U7G U8A G9A U10C U11C C12A C13G", "aptazyme ON/OFF ratio": 1.25}
{"variant": "U7G U8A G9A U10G U11C C12U", "aptazyme ON/OFF ratio": 1.09}
{"variant": "U7G U8A G9A U10G U11C C12A", "aptazyme ON/OFF ratio": 1.13}
{"variant": "U7G U8A G9A U10G U11C C12G", "aptazyme ON/OFF ratio": 1.17}
{"variant": "U7G U8A G9A U10C U11C", "aptazyme ON/OFF ratio": 1.06}
{"variant": "U7G U8A G9A U10C U11G", "aptazyme ON/OFF ratio": 1.24}
{"variant": "U7G U8A G9A U10C U11A", "aptazyme ON/OFF ratio": 1.4}
{"variant": "U7G U8A G9A U10C C12A C13A", "aptazyme ON/OFF ratio": 1.07}
{"variant": "U7G U8A G9A U10C C12A C13G", "aptazyme ON/OFF ratio": 1.06}
{"variant": "U7G U8A G9A U10C C12A C13U", "aptazyme ON/OFF ratio": 1.08}
{"variant": "U7G U8A G9A U10C U11A C12A", "aptazyme ON/OFF ratio": 1.12}
{"variant": "U7G U8A G9A U10C U11A C12U", "aptazyme ON/OFF ratio": 1.08}
{"variant": "U7G U8A G9A U10C U11A C12G", "aptazyme ON/OFF ratio": 1.15}
{"variant": "U7G U8A G9A U10G C12G", "aptazyme ON/OFF ratio": 1.09}
{"variant": "U7G U8A G9A U10G C12U", "aptazyme ON/OFF ratio": 1.52}
{"variant": "U7G U8A G9A U10G C12A", "aptazyme ON/OFF ratio": 1.32}
{"variant": "U7G U8A G9A U10G C12G C13U", "aptazyme ON/OFF ratio": 1.23}
{"variant": "U7G U8A G9A U10G C12G C13G", "aptazyme ON/OFF ratio": 1.09}
{"variant": "U7G U8A G9A U10G C12G C13A", "aptazyme ON/OFF ratio": 1.1}
{"variant": "U7G U8A G9A U10C U11G C12A C13G", "aptazyme ON/OFF ratio": 1.07}
{"variant": "U7G U8A G9A U10C U11G C12A C13A", "aptazyme ON/OFF ratio": 1.07}
{"variant": "U7G U8A G9A U10C U11G C12A C13U", "aptazyme ON/OFF ratio": 1.13}
{"variant": "U7G U8A G9A U10A U11G C12A C13U", "aptazyme ON/OFF ratio": 1.07}
{"variant": "U7G U8A G9A U10A U11G C12A C13G", "aptazyme ON/OFF ratio": 1.06}
{"variant": "U7G U8A G9A U10A U11G C12A C13A", "aptazyme ON/OFF ratio": 1.07}
{"variant": "U7G U8A G9A U10C U11G C12A", "aptazyme ON/OFF ratio": 1.04}
{"variant": "U7G U8A G9A U10C U11G C12U", "aptazyme ON/OFF ratio": 1.28}
{"variant": "U7G U8A G9A U10C U11G C12G", "aptazyme ON/OFF ratio": 1.32}
{"variant": "U7G U8A G9A U10G C12A C13U", "aptazyme ON/OFF ratio": 1.37}
{"variant": "U7G U8A G9A U10G C12A C13A", "aptazyme ON/OFF ratio": 1.18}
{"variant": "U7G U8A G9A U10G C12A C13G", "aptazyme ON/OFF ratio": 1.06}
{"variant": "U7G U8A G9A U10A U11G C12U C13G", "aptazyme ON/OFF ratio": 1.24}
{"variant": "U7G U8A G9A U10A U11G C12U C13A", "aptazyme ON/OFF ratio": 1.07}
{"variant": "U7G U8A G9A U10A U11G C12U C13U", "aptazyme ON/OFF ratio": 1.15}
{"variant": "U7G U8A G9A U10C U11C C12U C13U", "aptazyme ON/OFF ratio": 1.03}
{"variant": "U7G U8A G9A U10C U11C C12U C13A", "aptazyme ON/OFF ratio": 1.08}
{"variant": "U7G U8A G9A U10C U11C C12U C13G", "aptazyme ON/OFF ratio": 1.02}
{"variant": "U7G U8A G9A U11A C12A", "aptazyme ON/OFF ratio": 1.27}
{"variant": "U7G U8A G9A U10A U11A C13U", "aptazyme ON/OFF ratio": 1.23}
{"variant": "U7G U8A G9A U10A U11A C13A", "aptazyme ON/OFF ratio": 1.09}
{"variant": "U7G U8A G9A U10A U11A C13G", "aptazyme ON/OFF ratio": 1.06}
{"variant": "U7G U8A G9A U10C U11C C12U", "aptazyme ON/OFF ratio": 1.06}
{"variant": "U7G U8A G9A U10C U11C C12A", "aptazyme ON/OFF ratio": 1.11}
{"variant": "U7G U8A G9A U10C U11C C12G", "aptazyme ON/OFF ratio": 1.09}
